What was measured:
DNA polymerase beta WT [1] = biological target: T1, DNA polymerase beta WT (UniProt P06746 1-335); experiment: NaBH4 trapping of Schiff base complex
DNA polymerase beta L22P = DNA polymerase beta L22P (UniProt P06746 1-335, L22P); experiment: EMSA
DNA polymerase beta WT [2] = biological target: T1, DNA polymerase beta WT; experiment: EMSA

Binder | binding result (DNA polymerase beta WT [1]) | Kd (DNA polymerase beta L22P) [nM] | Kd (DNA polymerase beta WT [2]) [nM]
LPSD incised 5'-dRP substrate (UDG and APE1 treated) (dsDNA, uracil (position 16 of S8) removed by UDG; APE1 nick leaves 3'-OH and 5'-dRP on S8[17-34]) DNA 1: CTGCAGCTGATGCGC DNA 2: GTACGGATCCCCGGGTAC DNA 3: GTACCCGGGGATCCGTACGGCGCATCAGCTGCAG | binds |  | 
45AGR (recessed) (dsDNA, template 5' phosphate) DNA 1: GCCTCGCAGCCGTCCAACCAAC DNA 2: GGACGGCATTGGATCGAGGTTGAGTTGGTTGGACGGCTGCGAGGC |  | 455 ± 100 | 84 ± 18
45AG (1-nt gapped, 5'-phosphorylated downstream) (dsDNA, 5' phosphate on downstream oligo (S2) and template) DNA 1: GCCTCGCAGCCGTCCAACCAAC DNA 2: CAACCTCGATCCAATGCCGTCC DNA 3: GGACGGCATTGGATCGAGGTTGAGTTGGTTGGACGGCTGCGAGGC |  | 229 ± 50 | 12 ± 2
45AG1bpDNP (1-nt gapped, non-phosphorylated downstream) (dsDNA, no 5' phosphate on downstream oligo (S2); template 5' phosphate) DNA 1: GCCTCGCAGCCGTCCAACCAAC DNA 2: CAACCTCGATCCAATGCCGTCC DNA 3: GGACGGCATTGGATCGAGGTTGAGTTGGTTGGACGGCTGCGAGGC |  | 291 ± 45 | 20 ± 3

Source: publication PMC2241857
